Results: patent publication US20060073149A1

Legend:
[1] = molecular target: Soluble Aβ 1-42 (UniProt P05067); assay: SPR (BIAcore 2000), antibody captured on anti-Ig, soluble Aβ in flow
[2] = molecular target: Soluble Aβ 1-40 (UniProt P05067); assay: as above

Kd [1] [nM]	Kd [2] [nM]	Substance
0.004	0.004	Murine anti-Aβ antibody 266
24	23	anti-Aβ murine antibody 4G8
4.4		anti-Aβ murine antibody 21F12
